Data reported in the supplement of paper PMC10126150.
± gives the standard deviation of the averaged measurements.

System: ATP
Assay: switch fluorescence ratio, 500 uM ATP over buffer (Cy3 cluster intensity, sum of 5 cycles each) (fold (ratio)); higher = stronger signal-on switching upon ATP binding; sequences stand for … in TCGTCGGCAGCGTCAGATGTGTATAAGAGACAGTTTTTTTTTTTTTTTTTTTTTTTTT…TC
Details: aptamer strand: ATP DNA aptamer (quencher-CACCTGGGGGAGTATTGCGGAGGAAGG + anchor), 100 nM annealed; ATP concentration: 500 uM
In short: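 Clusters carrying Cy3-labelled switching strands on a modified Illumina MiSeq flow-cell were annealed to 100 nM quencher-labelled ATP aptamer and imaged in selection buffer. They were imaged again after 15 min with 500 uM ATP at 22 °C, over five buffer/ATP cycles with NaOH stripping and re-annealing in between. For each cluster, the fluorescence ratio is the summed Cy3 intensity of the target cycles divided by that of the buffer cycles, averaged per switch-domain sequence. Clusters outside 100-1000 RFU were left out.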
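Also: ATP exposure 15 min at 22 °C before imaging.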

Row | Sequence | switch fluorescence ratio
1 | ACATTATTGT | 0.982 ± 0.011
2 | ACATTATTTT | 1.02 ± 0.025
3 | ACATTGAGCG | 1.03 ± 0.028
4 | ACATTGAGGG | 1.057 ± 0.0028
5 | ACATTGATCG | 1.03 ± 0.017
6 | ACATTGATGG | 1.028 ± 0.00017
7 | ACATTGGCTA | 1 ± 0.035
8 | ACATTGTGTA | 0.9955 ± 0.0068
9 | ACATTGTTAT | 1.07 ± 0.1
10 | ACATTTCAAA | 0.987 ± 0.0069
11 | ACATTTGCCC | 1.069 ± 0.003
12 | ACATTTTCGT | 0.991 ± 0.032
13 | ACCAAACGTG | 1.23 ± 0.055
14 | ACCAAAGAGA | 0.993 ± 0.013
15 | ACCAAGCTTT | 1.04 ± 0.016
16 | ACCAATTTTT | 1.03 ± 0.026
17 | ACCACATATC | 1.1 ± 0.06
18 | ACCACCAGAA | 1.13 ± 0.02
19 | ACCACGGGCG | 1.09 ± 0.018
20 | ACCAGAGGTA | 1.01 ± 0.014
21 | ACCAGGATGC | 1.225 ± 0.0042
22 | ACCAGGGACG | 1.02 ± 0.073
23 | ACCAGGGCTT | 1.08 ± 0.021
24 | ACCAGGGTGG | 1.03 ± 0.068
25 | ACCAGGTCGT | 1.51 ± 0.05

Row | Sequence | switch fluorescence ratio
26 | ACCAGTTATT | 1.08 ± 0.14
27 | ACCATGTATC | 0.998 ± 0.026
28 | ACCATTATTT | 1.03 ± 0.014
29 | ACCATTCAAA | 1 ± 0.021
30 | ACCCAAATCA | 1.04 ± 0.019
31 | ACCCAGACGC | 1.35 ± 0.058
32 | ACCCATGCTT | 1.06 ± 0.013
33 | ACCCCAAATG | 1.124 ± 0.0098
34 | ACCCCATGTT | 1.86 ± 1
35 | ACCCCGGTCG | 1.167 ± 0.0062
36 | ACCCGTTGTT | 1.01 ± 0.039
37 | ACCCTAGGGT | 0.994 ± 0.035
38 | ACCCTCGAGA | 1.06 ± 0.06
39 | ACCCTGGCAA | 1.36 ± 0.41
40 | ACCCTGGTAT | 1.02 ± 0.017
41 | ACCCTTTTTG | 0.986 ± 0.025
42 | ACCGAATAAT | 1.03 ± 0.019
43 | ACCGACGGGA | 2.72 ± 2
44 | ACCGACTTGC | 1.09 ± 0.018
45 | ACCGATGCAC | 4.12 ± 1.2
46 | ACCGCCGTCA | 1.08 ± 0.012
47 | ACCGCGTTTT | 1.03 ± 0.041
48 | ACCGCTTGTA | 1.05 ± 0.052
49 | ACCGGAGCGG | 1.61 ± 0.042
50 | ACCGGATATA | 1.006 ± 0.0081

Row | Sequence | switch fluorescence ratio
51 | ACCGGATCGT | 0.9828 ± 0.0035
52 | ACCGGCGAGC | 1.01 ± 0.016
53 | ACCGGCGTAG | 1 ± 0.016
54 | ACCGGCTGCG | 1.08 ± 0.08
55 | ACCGGGCCGA | 1.04 ± 0.016
56 | ACCGGGCTTT | 0.988 ± 0.024
57 | ACCGGGGATT | 1 ± 0.018
58 | ACCGGGGCTA | 1.03 ± 0.031
59 | ACCGGGGTGG | 0.991 ± 0.05
60 | ACCGGGGTTT | 1 ± 0.051
61 | ACCGGTGCTG | 0.98 ± 0.042
62 | ACCGGTTAGC | 1.02 ± 0.015
63 | ACCGTAAACG | 0.999 ± 0.12
64 | ACCGTGTATG | 1.01 ± 0.027
65 | ACCGTGTTAT | 0.9583 ± 0.0037
66 | ACCTAAAGGA | 1.02 ± 0.016
67 | ACCTAATTAG | 1.06 ± 0.073
68 | ACCTCGAAGA | 1.03 ± 0.014
69 | ACCTGCTTTT | 1.05 ± 0.051
70 | ACCTGGCCTG | 0.999 ± 0.021
71 | ACCTGGCGTA | 1.04 ± 0.0016
72 | ACCTGGTCGT | 1.05 ± 0.048
73 | ACCTGTAATA | 1.05 ± 0.0062
74 | ACCTGTATA | 1.054 ± 0.0037
75 | ACCTTAGTAT | 1.02 ± 0.022

Row | Sequence | switch fluorescence ratio
76 | ACCTTATCCT | 1.16 ± 0.012
77 | ACCTTTTTCG | 1.07 ± 0.0096
78 | ACGAAAATGG | 1.05 ± 0.062
79 | ACGAAAGGGA | 1.11 ± 0.029
80 | ACGAAATCGG | 1.03 ± 0.018
81 | ACGAAATGAC | 1.68 ± 0.037
82 | ACGAAGGGGT | 1.03 ± 0.021
83 | ACGACAGCAG | 1.39 ± 0.033
84 | ACGACCGACA | 1.95 ± 0.29
85 | ACGACCGGGT | 1.2 ± 0.037
86 | ACGACTGAAG | 1.014 ± 0.0015
87 | ACGACTTCTT | 0.989 ± 0.019
88 | ACGAGAGGGG | 0.996 ± 0.048
89 | ACGAGTTACT | 1.1 ± 0.013
90 | ACGATAACTT | 1.21 ± 0.034
91 | ACGATACTTT | 1.37 ± 0.015
92 | ACGATCTCCA | 1.035 ± 0.005
93 | ACGATGGGGA | 1.04 ± 0.034
94 | ACGATGGTTT | 0.984 ± 0.04
95 | ACGATGTAAA | 0.9574 ± 0.0042
96 | ACGATTCAAG | 1.02 ± 0.061
97 | ACGATTGGTT | 1.005 ± 0.01
98 | ACGCACTAAG | 1.61 ± 0.026
99 | ACGCAGGCTT | 1.05 ± 0.011
100 | ACGCAGGTAT | 1.04 ± 0.061

Row | Sequence | switch fluorescence ratio
101 | ACGCAGTATG | 1.03 ± 0.031
102 | ACGCCGGGCT | 1.07 ± 0.054
103 | ACGCGACGGA | 1.07 ± 0.079
104 | ACGCGCTTTA | 0.99871 ± 0.00033
105 | ACGCGGAGTA | 0.997 ± 0.038
106 | ACGCGGCGTG | 0.982 ± 0.03
107 | ACGCGGCTAT | 1.06 ± 0.033
108 | ACGCGGGGGA | 1.03 ± 0.014
109 | ACGCGGGTAA | 1.023 ± 0.0095
110 | ACGCGGTCCA | 0.988 ± 0.019
111 | ACGCTTCTTG | 1 ± 0.028
112 | ACGCTTGAAT | 1.01 ± 0.023
113 | ACGGAAAAAG | 1.01 ± 0.026
114 | ACGGAATTGT | 1.07 ± 0.029
115 | ACGGACATCT | 1.28 ± 0.022
116 | ACGGACCATG | 1.11 ± 0.042
117 | ACGGACCCGG | 1.36 ± 0.42
118 | ACGGACGTTC | 1.15 ± 0.015
119 | ACGGCATTAT | 1.164 ± 0.0042
120 | ACGGCCTGTT | 1.02 ± 0.017
121 | ACGGCCTTAT | 0.991 ± 0.033
122 | ACGGCGAGAG | 1.06 ± 0.03
123 | ACGGCGAGGT | 1.03 ± 0.032
124 | ACGGCGAGTC | 1.01 ± 0.024
125 | ACGGCTGCGG | 0.987 ± 0.035

Row | Sequence | switch fluorescence ratio
126 | ACGGCTGTGC | 1.02 ± 0.013
127 | ACGGGACGCA | 1.089 ± 0.0019
128 | ACGGGACGGA | 1.034 ± 0.0065
129 | ACGGGACGTA | 1.04 ± 0.014
130 | ACGGGCATTT | 0.994 ± 0.04
131 | ACGGGCGGCG | 0.979 ± 0.047
132 | ACGGGCTTCT | 1.005 ± 0.0047
133 | ACGGGGGACT | 1.02 ± 0.049
134 | ACGGGGGATT | 1.03 ± 0.034
135 | ACGGGGGGCA | 1.01 ± 0.048
136 | ACGGGGGGGC | 1.09 ± 0.06
137 | ACGGGGGGGG | 1.02 ± 0.048
138 | ACGGGGGGGT | 1.09 ± 0.081
139 | ACGGGGTTGT | 1 ± 0.024
140 | ACGGGTAAAT | 1.01 ± 0.036
141 | ACGGGTGCGT | 1.017 ± 0.0027
142 | ACGGTAACTC | 1.27 ± 0.03
143 | ACGGTACGGA | 1.21 ± 0.05
144 | ACGGTCCAGG | 3 ± 0.5
145 | ACGGTCCGGG | 1.06 ± 0.036
146 | ACGGTGAACC | 0.989 ± 0.06
147 | ACGGTGAATG | 1 ± 0.038
148 | ACGGTGACTA | 1.1 ± 0.023
149 | ACGGTGATGG | 1.018 ± 0.0071
150 | ACGGTGGTCG | 0.913 ± 0.033

Row | Sequence | switch fluorescence ratio
151 | ACGGTGTGGC | 1.03 ± 0.072
152 | ACGGTTAGTC | 1.04 ± 0.016
153 | ACGGTTCTTT | 1.01 ± 0.03
154 | ACGGTTGAAT | 0.9882 ± 0.0084
155 | ACGGTTTCGT | 1.01 ± 0.014
156 | ACGGTTTCTG | 1.04 ± 0.029
157 | ACGGTTTCTT | 0.9771 ± 0.0039
158 | ACGGTTTGCG | 0.979 ± 0.011
159 | ACGGTTTTGC | 0.997 ± 0.013
160 | ACGTAACCTA | 1.28 ± 0.014
161 | ACGTAATTGG | 1.21 ± 0.01
162 | ACGTAGGGGG | 0.988 ± 0.032
163 | ACGTAGTGGC | 1.04 ± 0.02
164 | ACGTAGTGTC | 1.03 ± 0.018
165 | ACGTATCTTG | 1.08 ± 0.038
166 | ACGTATTAAT | 1.12 ± 0.031
167 | ACGTATTTTC | 1.171 ± 0.0024
168 | ACGTCCGTTT | 1.04 ± 0.019
169 | ACGTCGCGGG | 0.9877 ± 0.0019
170 | ACGTCTGGCT | 0.996 ± 0.028
171 | ACGTCTTCAC | 1.069 ± 0.002
172 | ACGTGACCCA | 1.35 ± 0.071
173 | ACGTGGGGAG | 1.08 ± 0.022
174 | ACGTGGGGTA | 1.04 ± 0.022
175 | ACGTGGGGTC | 1.02 ± 0.022

Row | Sequence | switch fluorescence ratio
176 | ACGTGGGTCT | 1.01 ± 0.028
177 | ACGTGGTAGC | 1 ± 0.03
178 | ACGTGTATTT | 1.08 ± 0.09
179 | ACGTGTGTTT | 1.01 ± 0.017
180 | ACGTGTTTTG | 1.02 ± 0.018
181 | ACGTTAGGGG | 1.14 ± 0.14
182 | ACGTTATAAG | 1.1 ± 0.011
183 | ACGTTCCGAG | 2.54 ± 0.32
184 | ACGTTCCGCT | 1.099 ± 0.003
185 | ACGTTCTATA | 1.026 ± 0.0088
186 | ACGTTGATTC | 1.03 ± 0.047
187 | ACGTTGGGGG | 1.01 ± 0.028
188 | ACGTTGGTGG | 1 ± 0.012
189 | ACGTTGTTTT | 0.984 ± 0.011
190 | ACGTTTAGAA | 1.01 ± 0.029
191 | ACGTTTTAAG | 1.01 ± 0.032
192 | ACGTTTTGTC | 1 ± 0.061
193 | ACGTTTTTAG | 1 ± 0.013
194 | ACTAAAATAT | 1.021 ± 0.0093
195 | ACTAAAGACA | 1.0077 ± 0.00019
196 | ACTAAAGGCT | 1.01 ± 0.015
197 | ACTAAAGGG | 1.02 ± 0.028
198 | ACTAAAGGGC | 1.07 ± 0.034
199 | ACTAACGGGG | 1.35 ± 0.084
200 | ACTAAGCTTG | 1 ± 0.033
